Assay results as given in patent publication US12606638B2, “Dosing regimens for use with PCSK9 inhibitors” (Sanofi Biotechnology, priority 2013, dated 2026).
Values joined by “and” are separate entries in the source; they are usually repeats but may differ in a detail not shown here. Equal entries are not always repeated. Where two headings read alike, the source gives them in different places.

What was measured:
healthy subjects [1] = assay: Phase 1 study in healthy subjects: pharmacodynamic profile (serum lipid parameters) of alirocumab alone or on top of ezetimibe or fenofibrate; type: in vivo, human; conditions: for Percent change in LDL-C during the run-in period (Day −29 to Day −1): ezetimibe 10 mg/day or fenofibrate 160 mg/day alone, before alirocumab, value on Day −1, mean (SEM); for Mean percent change in LDL-C from Day −1 baseline to Day 71: additional baseline Day −1 (start of alirocumab injection); for Mean percent change in LDL-C from Day −29 baseline to Day 71: main baseline Day −29 (start of placebo/EZE/FENO run-in), Day 71 = 14 days after 3rd alirocumab dose, 150 mg SC Q4W, N=24
Method: (§1) The primary objective of the study was to assess the pharmacodynamic profile of alirocumab administered either alone or on top of ezetimibe or fenofibrate, based on low density lipoprotein cholesterol (LDL-C).
The study evaluated 72 healthy subjects.
Alirocumab was administered subcutaneously in the abdomen.
Ezetimibe was formulated as a 10 mg over-encasulated tablet (and matching placebo ezetimibe capsule). Ezetimibe was administered orally.
Fenofibrate was formulated at a 160 mg coated tablet. Fenofibrate was administered orally during a meal.
The duration of treatment was as follows.
The pharmacodynamic criteria were as follows. The primary endpoint was percent change in calculated serum LDL-C from baseline (D-29). The secondary endpoints were absolute change from baseline in calculated LDL-C, total cholesterol (TC), high density lipoprotein cholesterol (HDL-C), non-HDL-C, triglycerides (TG), apolipoprotein B (ApoB), apolipoprotein A1 (ApoA1), and lipoprotein a (Lp[a]) analyzed in percent and absolute change from baseline.
The blood sampling for lipid parameters (ie, LDL-C, TC, HDL-C, non-HDL-C, TG, ApoB, ApoA1, Lp[a]) were performed in the morning, in the fasted condition (at least 10-hours fasted and refrained from smoking), before any drug intake.
Blood samples were collected at screening; Day −1 of the run-in phase; and Days 8, 15, 22, 29±1, 57±1, 64±1, 71±1, 78±1, 85±1, 99±2, and 120±3 of the treatment phase.

free PCSK9 = assay: Phase 1 study: circulating levels of free PCSK9; type: in vivo, human; conditions: for Free PCSK9 level at end of run-in period: prior to alirocumab treatment, from 152 (FENO) and 151 (EZE) at start of run-in
Excerpt: as §1

[2] = test system: patients with genotype-confirmed hoFH; conditions: ezetimibe 10 mg/day added to maximal dose of statins; cited from earlier work
[3] = in vivo
[4] = in vivo; remark: listed apart in the source
Method: Samples for the determination of anti-drug antibody (ADA) levels in serum were collected at Day −28 of the run-in phase; Days 29, 57, 85, and 120 of the treatment phase; and the EOS visit.
In neat serum samples, the validated lower limit of detection was approximately 1.5 ng/mL.

healthy subjects [5] = assay: Phase 1 study: safety (adverse events, laboratory, vital signs, ECG); conditions: for Patients with any TEAEs, %: N = 24 per group
[6] = additional baseline Day −1, 14 days after 3rd alirocumab dose
[7] = listed as Alirocumab 150 mg Q4W + placebo
[8] = main baseline Day −29, 14 days after 3rd alirocumab dose
[9] = median, additional baseline Day −1, 14 days after 3rd alirocumab dose
[10] = median, main baseline Day −29, 14 days after 3rd alirocumab dose

## O=C1[C@H](CC[C@H](O)c2ccc(F)cc2)[C@@H](c2ccc(O)cc2)N1c1ccc(F)cc1 [ezetimibe]
Healthy subjects [1]
  Percent change in LDL-C during the run-in period (Day −29 to Day −1): −19.8 (2.1) %
Free PCSK9
  Free PCSK9 level at end of run-in period: 142 ng/mL
[2]
  Total reduction of LDL-C levels: 27%

## CC(C)OC(=O)C(C)(C)Oc1ccc(C(=O)c2ccc(Cl)cc2)cc1 [fenofibrate, reference compound]
Healthy subjects [1]
  Percent change in LDL-C during the run-in period (Day −29 to Day −1): −25.9 (3.2) %
Free PCSK9
  Free PCSK9 level at end of run-in period: 217 ng/mL

## alirocumab
Healthy subjects [1]; 28 days after the 3rd administration of alirocumab
  Percent change in LDL-C from Day −1 baseline to Day 85: −47.03%
Healthy subjects [1]; 14 days after 3rd alirocumab dose, listed as Alirocumab 150 mg Q4W + placebo
  Mean percent change in LDL-C from Day −1 baseline to Day 71: −47.4%
Healthy subjects [1]; 14 days after 3rd alirocumab dose, listed as alirocumab alone
  Mean percent change in LDL-C from Day −1 baseline to Day 71: −47.39% and −47.4 (3.2) %
Healthy subjects [1]; [6]
  Mean percent change in Apolipoprotein B from Day −1 baseline to Day 71: −38.4%
  Mean percent change in HDL-C from Day −1 baseline to Day 71: 3.6%
  Mean percent change in Non-HDL-C from Day −1 baseline to Day 71: −43.0%
  Mean percent change in Total cholesterol from Day −1 baseline to Day 71: −31.5%
Healthy subjects [1]; alirocumab 150 mg Q4W monotherapy, regardless of baseline
  LDL-C reductions, sustained over the 28-day dosing interval: ~48%
Healthy subjects [1]; [7]
  Mean percent change in LDL-C from Day −29 baseline to Day 71: −48.2%
Healthy subjects [1]; listed as alirocumab alone
  Mean percent change in LDL-C from Day −29 baseline to Day 71: −47.59% and −48.2 (2.3) %
Healthy subjects [1]; [8]
  Mean percent change in Apolipoprotein B from Day −29 baseline to Day 71: −39.1%
  Mean percent change in HDL-C from Day −29 baseline to Day 71: 3.3%
  Mean percent change in Non-HDL-C from Day −29 baseline to Day 71: −43.0%
  Mean percent change in Total cholesterol from Day −29 baseline to Day 71: −31.6%
Healthy subjects [1]; [9]
  Median percent change in Lipoprotein (a) from Day −1 baseline to Day 71: −11.7%
  Median percent change in Triglycerides from Day −1 baseline to Day 71: −3.9%
Healthy subjects [1]; [10]
  Median percent change in Lipoprotein (a) from Day −29 baseline to Day 71: −20.3%
  Median percent change in Triglycerides from Day −29 baseline to Day 71: 5.7%
Free PCSK9; after the 1st and 3rd alirocumab injections
  Effect on free PCSK9 after alirocumab injection: complete suppression
[3]; human
  AUClast, Geometric Mean: (306) [38.4] mg · day/l
  AUClast, Mean ± SD: 326 ± 125 mg·days/L
  CL/F, Mean ± SD: 0.312 ± 0.124 L/day
  Cmax, Mean ± SD: 24300 ± 8610 ng/mL
  MRT, Geometric Mean: (18.2) [20.7] day
  MRT, Mean ± SD: 18.5 ± 3.84 days
  t1/2z, Geometric Mean: (8.37) [35.7] day
  t1/2z, Mean ± SD: 8.76 ± 3.12 days
[3]; human, sc, 150 mg
  Cmax, Mean ± SD: 20400 ± 13500 ng/mL
[3]
  AUC, Geometric Mean: (318) [58.9]^b mg · day/l
  AUC, Mean ± SD: 357 ± 210 mg·days/L
  AUCExt (percentage of extrapolation of AUC), Geometric Mean: (22) [44.7] %
  AUCExt (percentage of extrapolation of AUC), Mean ± SD: 25 ± 11%
  tlast, Median: 69.00 days
[4]
  Subjects tested ADA positive, %: 16.7%
  Subjects tested ADA positive, number: Four out of 24
Healthy subjects [5]; N = 24
  Abdominal pain (TEAE), %: (8.3) %
  Gastroenteritis viral (TEAE), %: (0) %
  Headache (TEAE), %: (12.5) %
  Influenza (TEAE), %: (8.3) %
  Influenza-like illness (TEAE), %: (4.2) %
  Nasopharyngitis (TEAE), %: (12.5) %
Healthy subjects [5]; [7]
  Patients with any TEAEs, %: (50.0) %
Healthy subjects [5]; listed as alirocumab alone
  Patients with any TEAEs, %: 50.0%
Healthy subjects [5]; alone or on top of ezetimibe or fenofibrate, 150 mg Q4W for 3 administrations, healthy subjects
  Tolerability: well tolerated
